{"source": "paper PMC5435312", "about": "“DNA recognition by an RNA-guided bacterial Argonaute”", "target": "T1, MpAgo D516A (Marinitoga piezophila, UniProt H2J4R4 1-639, D516A)", "T1 sequence": "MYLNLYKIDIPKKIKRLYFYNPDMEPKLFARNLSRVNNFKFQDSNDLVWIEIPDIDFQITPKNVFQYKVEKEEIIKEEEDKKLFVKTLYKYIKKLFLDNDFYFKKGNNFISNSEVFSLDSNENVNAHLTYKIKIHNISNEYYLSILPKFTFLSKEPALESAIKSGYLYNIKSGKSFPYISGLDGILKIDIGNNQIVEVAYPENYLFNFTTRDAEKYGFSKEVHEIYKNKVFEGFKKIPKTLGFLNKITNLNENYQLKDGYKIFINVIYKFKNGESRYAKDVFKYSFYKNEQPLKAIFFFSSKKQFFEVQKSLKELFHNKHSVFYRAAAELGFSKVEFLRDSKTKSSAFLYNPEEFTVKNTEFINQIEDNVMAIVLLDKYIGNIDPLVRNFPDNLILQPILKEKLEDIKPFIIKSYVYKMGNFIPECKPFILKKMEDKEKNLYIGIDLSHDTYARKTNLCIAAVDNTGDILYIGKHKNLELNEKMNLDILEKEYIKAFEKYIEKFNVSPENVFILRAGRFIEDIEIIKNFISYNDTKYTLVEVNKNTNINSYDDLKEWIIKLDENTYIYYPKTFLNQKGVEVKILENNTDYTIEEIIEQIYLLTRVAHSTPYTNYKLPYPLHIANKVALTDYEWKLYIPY", "experiment": "X-ray crystallography (3.2 A); 0.1 M MES pH 7.0, 275 mM KI, 27% PEG 4000; guide RNA 1.2x, target equimolar to guide; Crystallization: 0.1 M MES pH 7.0, 275 mM KI, 27% (w/v) PEG 4000, 18 C; protein about 3.5 mg/ml in complex; mismatch guides assayed by cleavage only (no binding read-out)", "details": "protein: recombinant; tags: His10-Asn10-MBP tag removed by PreScission protease; 21 nt guide and 21 nt target, fully complementary; in the complex guide nt 1 and target C21 are unpaired, 20 bp modeled"}
{"binder": "21 nt RNA guide / 21 nt DNA target (DNA:RNA, 5'-OH RNA guide; 5'-phosphate DNA target) RNA: GGUACAACCUACUACCUCAUU DNA: AATGAGGTAGTAGGTTGTACC", "values": [{"measurement": "binding result", "result": "binds"}]}
